± gives the standard error. For some of these results: This sample holds only a part of the variants without activity.

The labels stand for the following.
B1: glmS ribozyme (parent)
chain: AUAAAAGCGCCAGAACUACAGAAAUGUAGUUGACGAGGAGGAGGUUUAUCGAAUUUUCGGCGGAUGCCUCCAAA

Holding throughout (details): with glucosamine-6-phosphate
Data set [1] covers variants of B1. Nature of the data set: kcat; higher = faster cleavage; RNA array. The essentials:
(§1)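 Barcoded ribozyme variants were transcribed in situ on sequenced MiSeq chips by E. coli RNA polymerase. At 37 °C, a hybridised Cy3 probe tracked them while glucosamine-6-phosphate (40 μM to 10 mM) in HEPES/KCl/Mg(OAc)2 buffer flowed in and tiles were imaged over ~14 h. Per-tile medians of signals normalised to baseline and to non-cleaving reference variants were fit to one- or two-exponential decays, giving kobs. kcat and KM came from weighted Michaelis–Menten fits across concentrations.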

Variants of B1 are the subject of data set [2]. As to the kind of experiment: KM; higher = weaker cofactor use; RNA array. Put shortly:
as §1

In data set [3] the parent is B1. As to the kind of experiment: self-cleavage kobs at 640 uM GlcN6P; higher = faster cleavage; RNA array. The essentials: as §1
Data set [4] covers variants of B1. Nature of the data set: self-cleavage kobs at 2500 uM GlcN6P; higher = faster cleavage; RNA array. The essentials: as §1
Data set [5] covers variants of B1. Nature of the data set: self-cleavage kobs at 10000 uM GlcN6P; higher = faster cleavage; RNA array. Put shortly: as §1
In data set [6] the parent is B1. As to the kind of experiment: self-cleavage kobs at 160 uM GlcN6P; higher = faster cleavage; RNA array. The essentials:
as §1

Variants of B1 are the subject of data set [7]. As to the kind of experiment: self-cleavage kobs at 40 uM GlcN6P; higher = faster cleavage; RNA array. The essentials: as §1

On to C10A A12C, for which the catalytic constant (kcat) (in general, the number of substrate molecules converted per active site and unit of time at saturation) in the data set with glucosamine-6-phosphate [1] stood at 0.00025 ± 4.4e-05 s⁻¹. Also, in the data set with glucosamine-6-phosphate [2], the KM (commonly the substrate concentration at which the rate is half of its maximum) is 2520 ± 930 µM. Also, the “self-cleavage kobs at 640 uM GlcN6P” value with glucosamine-6-phosphate [3] stood at 4.03e-05 ± 8.4e-06 s⁻¹. Further, the “self-cleavage kobs at 2500 uM GlcN6P” value in the data set with glucosamine-6-phosphate [4] amounted to 0.000143 ± 1.2e-05 s⁻¹. Further, in the data set with glucosamine-6-phosphate [5], the “self-cleavage kobs at 10000 uM GlcN6P” value is 0.000185 ± 1.9e-05 s⁻¹.
In the case of A6G A12U, the kcat with glucosamine-6-phosphate [1] was 0.000134 ± 1.7e-05 s⁻¹. The “self-cleavage kobs at 640 uM GlcN6P” value with glucosamine-6-phosphate [3] worked out at 7.58e-05 ± 1.1e-05 s⁻¹. In the data set with glucosamine-6-phosphate [4], the “self-cleavage kobs at 2500 uM GlcN6P” value was 0.000155 ± 2.1e-05 s⁻¹. In the data set with glucosamine-6-phosphate [5], the “self-cleavage kobs at 10000 uM GlcN6P” value was found to be 0.000119 ± 1e-05 s⁻¹.
Regarding A15G C58A, in the data set with glucosamine-6-phosphate [1], the kcat was 0.000835 ± 8.2e-05 s⁻¹. In the data set with glucosamine-6-phosphate [2], the KM was found to be 5240 ± 790 µM. The “self-cleavage kobs at 160 uM GlcN6P” value in the data set with glucosamine-6-phosphate [6] came to 2.68e-05 ± 1.2e-05 s⁻¹. The “self-cleavage kobs at 640 uM GlcN6P” value in the data set with glucosamine-6-phosphate [3] turned out to be 8.63e-05 ± 1e-05 s⁻¹. Moreover, the “self-cleavage kobs at 2500 uM GlcN6P” value with glucosamine-6-phosphate [4] came to 0.000303 ± 4e-05 s⁻¹. In the data set with glucosamine-6-phosphate [5], the “self-cleavage kobs at 10000 uM GlcN6P” value is 0.000537 ± 5.2e-05 s⁻¹.
A53C U56A: the kcat in the data set with glucosamine-6-phosphate [1] is 0.00313 ± 0.00063 s⁻¹. Further, the KM in the data set with glucosamine-6-phosphate [2] was determined as 2700 ± 730 µM. In addition, the “self-cleavage kobs at 40 uM GlcN6P” value in the data set with glucosamine-6-phosphate [7] was found to be 4.81e-05 ± 7e-06 s⁻¹. In the data set with glucosamine-6-phosphate [6], the “self-cleavage kobs at 160 uM GlcN6P” value came out at 0.000205 ± 3.7e-05 s⁻¹. Further, in the data set with glucosamine-6-phosphate [3], the “self-cleavage kobs at 640 uM GlcN6P” value was 0.000467 ± 9.1e-05 s⁻¹. In the data set with glucosamine-6-phosphate [4], the “self-cleavage kobs at 2500 uM GlcN6P” value was found to be 0.00171 ± 0.00027 s⁻¹. Also, the “self-cleavage kobs at 10000 uM GlcN6P” value with glucosamine-6-phosphate [5] came to 0.00243 ± 0.00038 s⁻¹.
With G9A A12U, the catalytic constant (kcat) with glucosamine-6-phosphate [1] is 5.42e-05 ± 3.1e-06 s⁻¹. For the same variant, the “self-cleavage kobs at 160 uM GlcN6P” value with glucosamine-6-phosphate [6] was < 1e-05 s⁻¹. In the data set with glucosamine-6-phosphate [5], the “self-cleavage kobs at 10000 uM GlcN6P” value stood at 2.41e-05 ± 1e-05 s⁻¹.
Turning to C16A U30A, the kcat with glucosamine-6-phosphate [1] was 0.00139 ± 0.00047 s⁻¹. In the data set with glucosamine-6-phosphate [7], the “self-cleavage kobs at 40 uM GlcN6P” value is 3.95e-05 ± 8.3e-06 s⁻¹. In addition, the “self-cleavage kobs at 160 uM GlcN6P” value with glucosamine-6-phosphate [6] is 0.000164 ± 3e-05 s⁻¹. In addition, the “self-cleavage kobs at 640 uM GlcN6P” value in the data set with glucosamine-6-phosphate [3] was 0.000316 ± 5.7e-05 s⁻¹. In the data set with glucosamine-6-phosphate [4], the “self-cleavage kobs at 2500 uM GlcN6P” value is 0.00154 ± 0.00022 s⁻¹. The “self-cleavage kobs at 10000 uM GlcN6P” value with glucosamine-6-phosphate [5] stood at 0.00109 ± 0.00017 s⁻¹.
Consider A36G A53U, for which the kcat with glucosamine-6-phosphate [1] came out at 1.3e-05 ± 2.6e-06 s⁻¹. The “self-cleavage kobs at 40 uM GlcN6P” value with glucosamine-6-phosphate [7] is < 1e-05 s⁻¹. The “self-cleavage kobs at 160 uM GlcN6P” value in the data set with glucosamine-6-phosphate [6] was < 1e-05 s⁻¹.
With A42U U54G, the kcat with glucosamine-6-phosphate [1] amounted to 0.000246 ± 1e-05 s⁻¹. Moreover, the KM in the data set with glucosamine-6-phosphate [2] was determined as 736 ± 110 µM. In addition, the “self-cleavage kobs at 640 uM GlcN6P” value in the data set with glucosamine-6-phosphate [3] is 0.000117 ± 2e-05 s⁻¹. Further, the “self-cleavage kobs at 2500 uM GlcN6P” value with glucosamine-6-phosphate [4] was 0.000201 ± 3.1e-05 s⁻¹. Also, the “self-cleavage kobs at 10000 uM GlcN6P” value with glucosamine-6-phosphate [5] was 0.000226 ± 2.1e-05 s⁻¹.
As for G7A A15G U54G, the kcat with glucosamine-6-phosphate [1] turned out to be 3.72e-05 ± 1.5e-05 s⁻¹. Besides, in the data set with glucosamine-6-phosphate [7], the “self-cleavage kobs at 40 uM GlcN6P” value was < 1e-05 s⁻¹. In addition, the “self-cleavage kobs at 160 uM GlcN6P” value with glucosamine-6-phosphate [6] is < 1e-05 s⁻¹.
Regarding U65C C68A, in the data set with glucosamine-6-phosphate [1], the kcat is < 1e-05 s⁻¹. Besides, the “self-cleavage kobs at 40 uM GlcN6P” value with glucosamine-6-phosphate [7] is < 1e-05 s⁻¹.
With A15U C67G, the kcat with glucosamine-6-phosphate [1] came to 0.000167 ± 1.9e-06 s⁻¹. In the data set with glucosamine-6-phosphate [2], the KM stood at 1030 ± 37 µM. Moreover, in the data set with glucosamine-6-phosphate [6], the “self-cleavage kobs at 160 uM GlcN6P” value was 2.34e-05 ± 1.1e-05 s⁻¹. Moreover, the “self-cleavage kobs at 640 uM GlcN6P” value with glucosamine-6-phosphate [3] turned out to be 6.43e-05 ± 9.7e-06 s⁻¹. Also, in the data set with glucosamine-6-phosphate [4], the “self-cleavage kobs at 2500 uM GlcN6P” value amounted to 0.000115 ± 1.8e-05 s⁻¹. Besides, the “self-cleavage kobs at 10000 uM GlcN6P” value with glucosamine-6-phosphate [5] amounted to 0.000153 ± 1.2e-05 s⁻¹.
Regarding A6U C68G, in the data set with glucosamine-6-phosphate [1], the kcat worked out at 1.22e-05 ± 3e-06 s⁻¹.
With A52U A64G C68U, in the data set with glucosamine-6-phosphate [1], the kcat was determined as 6.78e-05 ± 4.7e-06 s⁻¹. The KM with glucosamine-6-phosphate [2] is 741 ± 230 µM. Also, the “self-cleavage kobs at 2500 uM GlcN6P” value with glucosamine-6-phosphate [4] is 5.62e-05 ± 2.2e-05 s⁻¹. In the data set with glucosamine-6-phosphate [5], the “self-cleavage kobs at 10000 uM GlcN6P” value was found to be 6.09e-05 ± 2.2e-05 s⁻¹.
As to U45G C67U, in the data set with glucosamine-6-phosphate [1], the kcat was 0.00709 ± 0.0025 s⁻¹. In addition, in the data set with glucosamine-6-phosphate [2], the KM came out at 2100 ± 1100 µM. In the data set with glucosamine-6-phosphate [7], the “self-cleavage kobs at 40 uM GlcN6P” value worked out at 0.000204 ± 3.5e-05 s⁻¹. The “self-cleavage kobs at 160 uM GlcN6P” value in the data set with glucosamine-6-phosphate [6] was determined as 0.000462 ± 6.3e-05 s⁻¹. Moreover, the “self-cleavage kobs at 640 uM GlcN6P” value with glucosamine-6-phosphate [3] was 0.00181 ± 0.00028 s⁻¹. The “self-cleavage kobs at 2500 uM GlcN6P” value in the data set with glucosamine-6-phosphate [4] came to 0.00248 ± 0.00057 s⁻¹. Further, the “self-cleavage kobs at 10000 uM GlcN6P” value with glucosamine-6-phosphate [5] turned out to be 0.00733 ± 0.00094 s⁻¹.
Take A14G A48C: the kcat with glucosamine-6-phosphate [1] was determined as 0.00102 ± 4.5e-05 s⁻¹. Moreover, in the data set with glucosamine-6-phosphate [2], the Michaelis-Menten constant (KM) was 2630 ± 260 µM. Besides, the “self-cleavage kobs at 160 uM GlcN6P” value in the data set with glucosamine-6-phosphate [6] was found to be 5.84e-05 ± 1.5e-05 s⁻¹. For the same variant, the “self-cleavage kobs at 640 uM GlcN6P” value in the data set with glucosamine-6-phosphate [3] stood at 0.000205 ± 8.1e-05 s⁻¹. In addition, the “self-cleavage kobs at 2500 uM GlcN6P” value in the data set with glucosamine-6-phosphate [4] amounted to 0.000509 ± 6.7e-05 s⁻¹. In addition, the “self-cleavage kobs at 10000 uM GlcN6P” value with glucosamine-6-phosphate [5] stood at 0.000803 ± 7.7e-05 s⁻¹.
As for C58A C71G, in the data set with glucosamine-6-phosphate [1], the kcat came out at 3.85e-05 ± 8.3e-06 s⁻¹. For the same variant, the “self-cleavage kobs at 40 uM GlcN6P” value with glucosamine-6-phosphate [7] was < 1e-05 s⁻¹. In addition, the “self-cleavage kobs at 640 uM GlcN6P” value with glucosamine-6-phosphate [3] was found to be 3.58e-05 ± 1.5e-05 s⁻¹. In the data set with glucosamine-6-phosphate [4], the “self-cleavage kobs at 2500 uM GlcN6P” value came out at 4.63e-05 ± 1.1e-05 s⁻¹. Also, in the data set with glucosamine-6-phosphate [5], the “self-cleavage kobs at 10000 uM GlcN6P” value was 2.57e-05 ± 1.2e-05 s⁻¹.

Values taken from the supplement of paper PMC7125110.
